Patent EP2450379B1 (Crucell Holland B.V., dated 2015)

What was measured:
[1] = biological target: T1, soluble recombinant HA (sHA) of H5N1TV (influenza A virus A/Vietnam/1194/2004 …, UniProt Q6J8F6 17-528); assay: immunoblot, reducing SDS-PAGE
[2] = biological target: T1, soluble recombinant HA (sHA) of H5N1TV; assay: immunoblot (data not shown)

B1: CR6307 (antibody, V domains shown)
VH: QVQLVQSGGGLVKPGGSLRLSCAASGFTFSSYSMNWVRQAPGKGLEWVSSISSSSSYIYYVDSVKGRFTISRDNAKNSLYLQMNSLRAEDTAVYYCARGGGSYGAYEGFDYWGQGTLVTVSS
VL: EIVLTQSPGTLSLSPGERATLSCRASQRVSSYLAWYQQKPGQAPRLLIYGASTRAAGIPDRFSGSGSGTDFTLTISRLEPEDSAVYYCQQYGRTPLTFGGGTKVEIKR
notes: human IgG1
B1: binds [1].

B2: CR6323 (antibody, V domains shown)
VH: EVQLVESGAEVKKPGSSVKVSCKASGGTFSSYGISWVRQAPGQGLEWMGDIIGMFGSTNYAQNFQGRLTITADESTSTAYMELSSLRSEDTAVYYCARSSGYYPAYLPHWGQGTLVTVSS
VL: not shown
notes: human IgG1
B2: binds [1].

B3: CR6141 (antibody, V domains shown)
VH: EVQLVQSGAEVKKPGASVKVSCKASGYTFTGYYVYWVRQAPGQGLEWMGWISAYNGNTNYAQKFQGRVTITADKSTSTAYMELSSLRSEDTAVYYCARSRSLDVWGQGTTVTVSS
VL: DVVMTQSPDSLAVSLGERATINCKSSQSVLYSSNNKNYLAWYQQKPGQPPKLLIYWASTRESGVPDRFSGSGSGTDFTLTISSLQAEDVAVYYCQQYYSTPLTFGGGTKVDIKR
notes: human IgG1
B3: binds [2].

B4: CR6296 (antibody, V domains shown)
VH: EVQLVETGAEVKKPGASVKVSCKASGYTFTSYYMHWVRQAPGQGLEWMGWINPNSGGTNYAQKFQGRVTMTRDTSISTAYMELSRLRSDDTAVYYCAREGKWGPQAAFDIWGQGTMVTVSS
VL: EIVMTQSPGTLSLSPGERATLSCRASQSVSSSYLAWYQQKPGQAPRLLIYDASSRATDIPDRFSGSGSGTDFTLTISRLEPEDFAVYYCQQYGSSLWTFGQGTKVEIKR
notes: human IgG1
B4: binds [2].

B5: CR6301 (antibody, V domains shown)
VH: EVQLVESGGGLVQPGGSLRLSCAASGFTFSIYAMSWVRQAPGKGLEWVSAISSSGDSTYYADSVKGRFTISRDNARNTLYLQMNSLRAEDTAVYYCARAYGYTFDPWGQGTLVTVSS
VL: not shown
notes: human IgG1
B5: binds [2].
